The text below walks through data of PMC7003530 (Biochemistry, 2019).

The target of this assay is Factor-inhibiting HIF-1 (human, UniProt Q9NWT6 1-349). Briefly: other fluorescence titration.

In turn, H-DESGLPQLTSYDAEVNAPIQGSRNLLQGEELLRALDQVN-OH [39-residue CTAD peptide substrate, human HIF-1α 788–826 with C800A] came in with a Kd of 92 ± 9 µM.
